Patent US6673915 (GENERAL HOSPITAL, dated 2004)

Target: T1, CC CKR3 stably expressed on HEK-293 cells (Example 10A) (human, UniProt P51677 1-355)
T1 sequence (looked up): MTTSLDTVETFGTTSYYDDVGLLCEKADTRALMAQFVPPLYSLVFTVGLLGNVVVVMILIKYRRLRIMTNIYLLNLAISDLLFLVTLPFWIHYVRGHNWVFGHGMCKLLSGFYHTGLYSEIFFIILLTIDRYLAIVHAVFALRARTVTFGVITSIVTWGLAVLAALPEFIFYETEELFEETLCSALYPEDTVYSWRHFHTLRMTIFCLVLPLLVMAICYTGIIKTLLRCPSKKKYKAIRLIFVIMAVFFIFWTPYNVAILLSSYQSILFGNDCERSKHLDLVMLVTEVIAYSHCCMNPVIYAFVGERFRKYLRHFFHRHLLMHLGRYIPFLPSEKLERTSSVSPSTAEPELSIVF
Assay: cell-based or functional assay

B1: recombinant human MCP-4 with the mature N-terminal Gln (PeproTech) (ligand)
chain: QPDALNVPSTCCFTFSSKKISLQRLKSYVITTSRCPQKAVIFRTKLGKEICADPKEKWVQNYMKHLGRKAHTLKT
  EC50 of calcium flux relative to eotaxin at CKR3: ~2 fold
